According to the supplement of paper PMC12764529:
± gives the half width of the 95% confidence interval.

Columns and labels:
[1] = folding stability dG unfold from trypsin proteolysis; higher = more stable
Summary of the method: (§1)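 Bayesian fitting of sequencing counts gave K50 for each design. Unfolding free energy followed by setting this against a sequence-predicted unfolded-state K50 and a shared folded-state K50, either per protease or with trypsin and chymotrypsin combined. The designs, under 80 residues and lacking cysteine, were digested in a PA-tagged cDNA display format at 11 threefold-diluted protease concentrations and without protease, and only those with AlphaFold2 dimer inter-PAE above 15 were kept.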

[2] = folding stability dG unfold from chymotrypsin proteolysis; higher = more stable
Summary of the method: as §1

[3] = folding stability dG unfold (combined trypsin and chymotrypsin); higher = more stable
Summary of the method: as §1

| Sequence | folding stability dG unfold [1] [kcal/mol] | folding stability dG unfold [2] [kcal/mol] | folding stability dG unfold [3] [kcal/mol] |
| --- | --- | --- | --- |
| SAMKVYIAASSPEEIEGWIEEARKAGIDGPELIFVSPDDRVYKAEIIPNTGEVKIEPVKPIEELLKELPSAG [r14_913_TrMRF] | 1.09 ± 0.11 | 0.788 ± 0.4 | 0.955 ± 0.34 |
| SAMKVYKAKVTIVDEEGNLLDEIELEFETEEELKEKVLEELGVSEEEIVEIELSPEVSEEEFEKKLKLESAG [r14_852_JUSTAS] | -0.425 ± 0.25 | 0.776 ± 0.15 | 0.347 ± 0.14 |
| SAMLEEVEERAREIAERLREEYPDVEEFTVELELPLPDGRFLRVTVTIRRERDDEGDTFEVEVDVEEVDSAG [r14_788_TrMRF] | 3.47 ± 0.13 | 4.91 ± 0.13 | 4.46 ± 0.095 |
| SAMLKLEITLPDGTVVEVEIPLERPVPPAGEEEALAAAEAVREAVAAALGLEDAEVTMEVEEVSPEELLSAG [r14_378_JUSTAS] | 1.65 ± 0.12 | 1.03 ± 0.051 | 1.41 ± 0.2 |
| SAMLPSIIIAKAKEAIEKSGKPVPVVIKIPVYKKENGPPVSLEKAKEIFEKLKEAFPDVPIIIELEEPESAG [r14_636_TrMRF] | 0.875 ± 0.011 | 0.539 ± 0.034 | 0.766 ± 0.048 |
| SAMLTILSVETHTLPNGEEIVTVTLKTPDLETLDALLAELGLTGTRDPDDPQVVTITTSREKVQEIKEKSAG [r14_777_JUSTAS] | 3.34 ± 0.14 | 4.71 ± 0.2 | 4.57 ± 0.3 |
| SAMMKAEIVEIKFDPKTKKLTIKFPDGSKLEIKPGETIKIKIKVTVFNEETGKLEEKEITLTLKLPEGLSAG [r14_366_TrROS_Hall] | 2.31 ± 0.27 | 2.96 ± 0.1 | 2.91 ± 0.43 |
| SAMPEKRFYTYEIPIPPGFKADEPFVGTVTLEEKTLPIKIGSIPDVPPDATVRLTVDLDTAEFRVELLPSAG [r14_554_TrMRF] | 0.91 ± 0.1 | 1.3 ± 0.087 | 1.16 ± 0.2 |
| SAMRIEIVRDPETGELVVRVVLPREEAEEAAEELARRLAEAGLEVEVKVVRIEETDGETRVVVEIKVKPSAG [r14_345_TrROS_Hall] | 3.74 ± 0.11 | 2.88 ± 0.061 | 3.3 ± 0.1 |
| SAMRIVVPYRETLRLTGLPEDTPLEEFRERFERIFRRLMERGVRPVRIEIYEIGDERYIVVEIETPGGASAG [r14_158_TrMRF] | 2.907 ± 0.019 | 4.042 ± 0.017 | 3.62 ± 0.041 |
| SAMSEKDMEPIETFELPETNVKIELYYNKKTKKYVIKIKNKKTKKTKTIVIKSKDGKITLEELKKLIKKSAG [r14_948_TrROS_Hall] | 2.93 ± 0.24 | 3.42 ± 0.077 | 3.61 ± 0.31 |
| SAMSLEDMTPEELEELVKELIEKLREELEKEGKTIKPGETIEIEIEVKGKKLKIKITVDKDGNIKIEVESAG [r14_501_TrROS_Hall] | 2.87 ± 0.2 | 3.03 ± 0.084 | 2.97 ± 0.092 |
| SAMSVKTYSSTSVDPKTGKTYTTTTTVTPKPEPPWLVTTTTYLVDPATGTTTLLSTTTTTLDPNDPTLLSAG [r14_939_JUSTAS] | 2.11 ± 0.071 | 2.67 ± 0.11 | 2.45 ± 0.084 |
| SAMTKTETFTFDDVEITVTTTEVTLPNGEKKDVYTLTKYTVDPSTGTTTPSSKTFSSKEEMEAALKASLSAG [r14_500_JUSTAS] | 3.6 ± 0.27 | 4.036 ± 0.04 | 3.97 ± 0.16 |
| SAMTLTLEFENLKDLTEEEIEEALKEAGLPGVKILGIKKTSEKWTITIAYDSSTPKEKIEAAIKKAVAESAG [r14_657_JUSTAS] | 5.03 ± 0.35 | 4.64 ± 0.13 | 4.56 ± 0.18 |
| SAMTLTLEIELDGVRVRLEAELELVLNEDGSLELKLKLKIEVEPLPPPKEVEVEEEEEEVEEVEFLPEESAG [r14_341_TrROS_Hall] | 3.82 ± 0.31 | 4.61 ± 0.28 | 4.44 ± 0.26 |
| SAMTTTTSVDPASGSSTVTTTEIIEKPAGKLPNGTKLPPVKVKKTTTTTYAPNGTKLSTTTTTTPVPLGSAG [r14_246_JUSTAS] | 1.01 ± 0.064 | 0.67 ± 0.11 | 0.874 ± 0.086 |
| SAMTVTSSVTTQPVPDSSDTVTYTNITVTIGNQTVTYTETVTYSSTDPTLRTVTTLLPDGTTVTTTVPVGSA [r9_897_JUSTAS] | 1.94 ± 0.1 | 2.6 ± 0.084 | 2.18 ± 0.13 |

| Sequence | folding stability dG unfold [1] [kcal/mol] | folding stability dG unfold [2] [kcal/mol] | folding stability dG unfold [3] [kcal/mol] |
| --- | --- | --- | --- |
| SAMVEVRIEYDEETGEIRIEVRAEEEGEELTEEEIEELARELAEELGLPVEIKEIRVEKAPEVEEVVLESAG [r14_556_TrROS_Hall] | 1.05 ± 0.18 | 0.757 ± 0.1 | 0.884 ± 0.3 |
| SAMVLKVEEEPFPPNAKREVKEIRKDPNSDNLFKVKIELEKSPDPSVTSAKVITIPPDGSKKVEEKVLESAG [r14_10_JUSTAS] | 0.514 ± 0.27 | 0.47 ± 0.19 | 0.508 ± 0.59 |
| SAMVLRLVVTVTGKIGDSLSTTTITREVSLEEYSEEELEALAEAVADAIRAANPEATVSLSILPEEELESAG [r14_723_JUSTAS] | 2.47 ± 0.074 | 2.565 ± 0.02 | 2.58 ± 0.097 |
| SAMVSVTELPDGGVLATFPLPDGHPATAVFDPADLKPSVAYFPNGLRAVLRVTPDGRVELLAVEDVPPASAG [r14_877_TrMRF] | 0.892 ± 0.023 | 0.963 ± 0.1 | 0.943 ± 0.052 |
| SAMVVTYDPATGKITVNVTLYVEEPLTPEERAALAAAIKAALAAAHPDVDVTVTLHPAPSPEEVEKLAASAG [r14_406_JUSTAS] | 2.92 ± 0.14 | 2.23 ± 0.058 | 2.47 ± 0.12 |
| SAMVYEFPFETEEEAREKAREVLLEKLGASPEEEKVELDIEIEIREDPETGKKLATVTVPKVTVSPKKSSAG [r14_467_JUSTAS] | 0.0292 ± 0.11 | 0.411 ± 0.099 | 0.318 ± 0.086 |
| SAMVYPYLLRVYLPGSGEVVYFPASSLEEAVELLEEVAALPNVNSVDLYTPDGTKVHFLIDVPPEAFEESAG [r14_747_TrMRF] | 2.67 ± 0.12 | 2.891 ± 0.022 | 2.77 ± 0.066 |
| SAMYKIRLKNGEEIELEGMSIEELEKLFPDVELEIEKVEKVPVVKAPSKEEAEELAKKLPPGAKIIVEDSAG [r14_445_TrROS_Hall] | 0.287 ± 0.14 | 0.233 ± 0.36 | 0.324 ± 0.3 |
| SAMYVRITVTFETPDGTRTVTIEIPPSEVEAGKPLSEEELKALAEEIAAKDPNATITEITIERFPESLESAG [r14_373_JUSTAS] | 4.29 ± 0.11 | 3.865 ± 0.037 | 3.99 ± 0.075 |
| SANDAMRKMMENMSPEDMMEMVRPPVPPPPVVTIRVPIEDLPKFLQWLSEEFGVEIEREDGYLYITVTASAG [r14_7_TrROS] | 0.623 ± 0.084 | 1.48 ± 0.034 | 1.22 ± 0.095 |
| SANDKHKYEEEYPYRNPNDPGQPMPFKREREVPVQPPPVITIDADELAKELKEQGEIKIPPDGWIAIPFSAG [r14_582_TrROS] | 3.08 ± 0.4 | 4.1 ± 0.2 | 3.51 ± 0.49 |
| SANIQIMIEDWDPERGWIRISIQVDKGDPDKPITPELVNNIRELFRFRGIEVNIEVHPDGMVNIEIPIPSAG [r14_865_TrROS] | 3.39 ± 0.069 | 4.59 ± 0.051 | 4.14 ± 0.094 |
| SANKNFYIIQIKWEIDGPDGRTLSFMIIVPRDDPDEFLKEAKDFIAEEFGYPIKKIEVDIHRIPPEDFPSAG [r14_104_TrROS] | 2.76 ± 0.14 | 3.16 ± 0.07 | 3.01 ± 0.17 |
| SANMPPGDWKPINIKVKIERPGGKPEFEYPIYKHPDGMIMIFIHFPIPPGAYKIKIEFPGNGKENEFKFSAG [r14_280_TrROS] | 1.52 ± 0.058 | 2.84 ± 0.09 | 2.29 ± 0.32 |
| SANPALYQWVTTDVVLPFETEEEALAAVEALAAARAAATGATVTVSVEVERLPDGLRVRVPVTTLVPLLSAG [r14_626_JUSTAS] | 1.05 ± 0.012 | 0.984 ± 0.099 | 1.05 ± 0.046 |
| SANPGKPVTIEIPVEEIRQKLNEENPDKPLTPSELKDLAKELIQRQGFPFKDVEIKSVNPGNGWIKIKVSAG [r14_303_TrROS] | 0.871 ± 0.095 | -0.538 ± 0.43 | 0.279 ± 0.5 |
| SANPIPLEKANITVSYTSPDGLVVTANITSVTYDPSTGKYTFTFTGTLTDPSTGTTTPVSFTVSTVTLSSAG [r14_825_JUSTAS] | 2.68 ± 0.1 | 4.25 ± 0.099 | 3.79 ± 0.13 |
| SAPIRPGQDLKIEPEIRRYPNGSMSYTYRLEFPNGPTVHVRHTMQRDPEHGKPRHKWDIHLSPKALEAFSAG [r14_842_TrROS] | 1.49 ± 0.057 | 1.37 ± 0.09 | 1.41 ± 0.07 |
